Reference: IntAct's records for PubMed 11583623

B1: Serine protease HTRA2, mitochondrial (Homo sapiens), O43464 (parent)
chain: MAAPRAGRGAGWSLRAWRALGGIRWGRRPRLTPDLRALLTSGTSDPRARVTYGTPSLWARLSVGVTEPRACLTSGTPGPRAQLTAVTPDTRTREASENSGTRSRAWLAVALGAGGAVLLLLWGGGRGPPAVLAAVPSPPPASPRSQYNFIADVVEKTAPAVVYIEILDRHPFLGREVPISNGSGFVVAADGLIVTNAHVVADRRRVRVRLLSGDTYEAVVTAVDPVADIATLRIQTKEPLPTLPLGRSADVRQGEFVVAMGSPFALQNTITSGIVSSAQRPARDLGLPQTNVEYIQTDAAIDFGNSGGPLVNLDGEVIGVNTMKVTAGISFAIPSDRLREFLHRGEKKNSSSGISGSQRRYIGVMMLTLSPSILAELQLREPSFPDVQHGVLIHKVILGSPAHRAGLRPGDVILAIGEQMVQNAEDVYEAVRTQSQLAVQIRRGRETLTLYVTPEVTE

Variants of: B1
Conditions: with xiap_human XIAP

effect of a mutation on the interaction | Variant
disrupting interaction | A134M
